# System: engineered chimeric receptor SEQ ID NO: 33 and its mutants (human α7-nAChR ligand binding domain / human GlyRα1 ion pore domain) in Lenti-X 293T cells
# Assay: YFP fluorescence quenching anion reporter plate reader assay (percent quench, EC50)
# Format: cell-based
# Conditions: for YFP fluorescence quenching using CNL001 (percent quench): receptor named in row; for YFP fluorescence quenching using Varenicline, 3 nM var: ligand Varenicline 3 nM; for YFP fluorescence quenching using Varenicline, 30 nM var: ligand Varenicline 30 nM; for YFP fluorescence quenching using Varenicline, 300 nM var: ligand Varenicline 300 nM; for YFP fluorescence quenching using Varenicline, 500 nM var: ligand Varenicline 500 nM; for YFP fluorescence quenching using Varenicline, 1 uM var: ligand Varenicline 1 uM
# In short: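 Lenti-X 293T cells co-expressing an anion-quenchable YFP were transiently transfected with receptor DNA, then ligand was added in NaI-substituted buffer (pH 7.2) after 30 min at 37 °C. Fluorescence was read about 2 min; percent quench = mean of last 10 s over 15 s pre-ligand baseline.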
# [1] = 1 nM CNL001, first column so headed
# [2] = 1 nM CNL001, second column so headed
# [3] = 1 nM brd (TC-5619/Bradanicline)
# [4] = 3 nM brd (TC-5619/Bradanicline)
# [5] = 10 nM CNL001, first column so headed
# [6] = 10 nM CNL001, second column so headed
# [7] = 10 nM brd (TC-5619/Bradanicline)
# [8] = 30 nM brd (TC-5619/Bradanicline)
# [9] = 50 nM CNL001, first column so headed
# [10] = 50 nM CNL001, second column so headed
# [11] = 100 nM CNL001, first column so headed
# [12] = 100 nM CNL001, second column so headed
# [13] = 300 nM brd (TC-5619/Bradanicline)
# [14] = 1 uM CNL001, first column so headed
# [15] = 1 uM CNL001, second column so headed
molecule,measurement,setting,value
"CODA1039: engineered receptor: Y115E, Y210W in SEQ ID NO: 33 (protein, synthetic sequence of chimeric LGIC) MRCSPGGVWLALAASLLHVSLQGEFQRKLYKELVKNYNPLERPVANDSQPLTVYFSLSLLQIMDVDEKNQVLTTNIWLQMSWTDHYLQWNVSEYPGVKTVRFPDGQIWKPDILLENSADERFDATFHTNVLVNSSGHCQYLPPGIFKSSCPMDLKNFPMDVQTCKLKFGSWSYGGWSLDLQMQEADISGYIPNGEWDLVGIPGKRSERFWECCKEPYPDVTFTVTMRRRMGYYLIQMYIPSLLIVILSWISFWINMDAAPARVGLGITTVLTMTTQSSGSRASLPKVSYVKAIDIWMAVCLLFVFSALLEYAAVNFVSRQHKELLRFRRKRRHHKSPMLNLFQEDEAGEGRFNFSAYGMGPACLQAKDGISVKGANNSNTTNPPPAPSKSPEEMRKLFIQRAKKIDKISRIGFPMAFLIFNMFYWIIYKIVRREDVHNQ",YFP fluorescence quenching using CNL001 (percent quench),[1],−1.12%
same,YFP fluorescence quenching using CNL001 (percent quench),[2],−3.941%
same,YFP fluorescence quenching using TC-5619/Bradanicline (percent quench),[3],−5.55%
same,YFP fluorescence quenching using TC-5619/Bradanicline (percent quench),[4],6.78%
same,YFP fluorescence quenching using CNL001 (percent quench),[5],6.275%
same,YFP fluorescence quenching using CNL001 (percent quench),[6],11.943%
same,YFP fluorescence quenching using TC-5619/Bradanicline (percent quench),[7],−2.7%
same,YFP fluorescence quenching using TC-6683 (percent quench),30 nM TC-6683,−1.608%
same,YFP fluorescence quenching using TC-5619/Bradanicline (percent quench),[8],34.43%
same,YFP fluorescence quenching using CNL001 (percent quench),[9],12.949%
same,YFP fluorescence quenching using CNL001 (percent quench),[10],18.635%
same,YFP fluorescence quenching using ABT-126 (percent quench),50 nM abt (ABT-126),−17.32%
same,YFP fluorescence quenching using CNL001 (percent quench),[11],17.576%
same,YFP fluorescence quenching using CNL001 (percent quench),[12],18.319%
same,YFP fluorescence quenching (percent quench),100 nM CNL002,21.85%
same,YFP fluorescence quenching using ABT-126 (percent quench),100 nM abt (ABT-126),−13.93%
same,YFP fluorescence quenching using AZD-0328 (percent quench),100 nM azd0328,−10.45%
same,YFP fluorescence quenching using TC-6683 (percent quench),300 nM TC-6683,−3.491%
same,YFP fluorescence quenching using ABT-126 (percent quench),300 nM abt (ABT-126),9.9%
same,YFP fluorescence quenching using AZD-0328 (percent quench),300 nM azd0328,−13%
same,YFP fluorescence quenching using TC-5619/Bradanicline (percent quench),[13],70.05%
same,YFP fluorescence quenching using ABT-126 (percent quench),500 nM abt (ABT-126),36.97%
same,YFP fluorescence quenching using CNL001 (percent quench),[14],19.329%
same,YFP fluorescence quenching using CNL001 (percent quench),[15],20.672%
same,YFP fluorescence quenching (percent quench),1 uM CNL002,47.37%
same,YFP fluorescence quenching using ABT-126 (percent quench),1 uM abt (ABT-126),48.37%
same,YFP fluorescence quenching using TC-6683 (percent quench),3 uM TC-6683,−6.153%
same,YFP fluorescence quenching using ABT-126 (percent quench),3 uM abt (ABT-126),50.5%
same,YFP fluorescence quenching using ABT-126 (percent quench),10 uM abt (ABT-126),58.13%
same,YFP fluorescence quenching (percent quench),10 uM ach (acetylcholine),−2.97%
same,YFP fluorescence quenching (percent quench),30 uM CNL002,59.97%
same,YFP fluorescence quenching using TC-6683 (percent quench),30 uM TC-6683,−9.263%
same,YFP fluorescence quenching using ABT-126 (percent quench),30 uM abt (ABT-126),64.1%
same,YFP fluorescence quenching using AZD-0328 (percent quench),30 uM azd0328,30.76%
same,YFP fluorescence quenching using ABT-126 (percent quench),50 uM abt (ABT-126),66.67%
same,YFP fluorescence quenching (percent quench),50 uM ach (acetylcholine),−3.94%
same,YFP fluorescence quenching using TC-6683 (percent quench),100 uM TC-6683,−9.19%
same,YFP fluorescence quenching using ABT-126 (percent quench),100 uM abt (ABT-126),68.63%
same,YFP fluorescence quenching (percent quench),100 uM ach (acetylcholine),0.35%
same,YFP fluorescence quenching (percent quench),300 uM ach (acetylcholine),−4.13%
same,YFP fluorescence quenching (percent quench),500 uM ach (acetylcholine),−5.18%
same,YFP fluorescence quenching (percent quench),1 mM ach (acetylcholine),1.21%
same,YFP fluorescence quenching (percent quench),3 mM ach (acetylcholine),26.69%
same,"YFP fluorescence quenching using Facinicline, 30 nM fac",ligand Facinicline 30 nM,−13.46
same,"YFP fluorescence quenching using Facinicline, 300 nM fac",ligand Facinicline 300 nM,5.43
same,"YFP fluorescence quenching using Facinicline, 30 uM fac",ligand Facinicline 30 uM,49.06
same,"YFP fluorescence quenching using TC-6987, 1 uM tc6987",ligand TC-6987 1 uM,7.26
same,"YFP fluorescence quenching using TC-6987, 10 uM tc6987",ligand TC-6987 10 uM,11
same,"YFP fluorescence quenching using TC-6987, 500 uM tc6987",ligand TC-6987 500 uM,7.97
same,"YFP fluorescence quenching using Varenicline, 3 nM var",first column,−10.926
same,"YFP fluorescence quenching using Varenicline, 3 nM var",second column,−7.395
same,"YFP fluorescence quenching using Varenicline, 30 nM var",first column,−5.661
same,"YFP fluorescence quenching using Varenicline, 30 nM var",second column,−1.244
same,"YFP fluorescence quenching using Varenicline, 300 nM var",first column,−4.555
same,"YFP fluorescence quenching using Varenicline, 300 nM var",second column,1.081
same,"YFP fluorescence quenching using Varenicline, 500 nM var",first column,9.172
same,"YFP fluorescence quenching using Varenicline, 500 nM var",second column,12.561
same,"YFP fluorescence quenching using Varenicline, 1 uM var",first column,7.139
same,"YFP fluorescence quenching using Varenicline, 1 uM var",second column,12.664
"CODA1045: engineered receptor: R101W, Y210V in SEQ ID NO: 33 (protein, synthetic sequence of chimeric LGIC) MRCSPGGVWLALAASLLHVSLQGEFQRKLYKELVKNYNPLERPVANDSQPLTVYFSLSLLQIMDVDEKNQVLTTNIWLQMSWTDHYLQWNVSEYPGVKTVWFPDGQIWKPDILLYNSADERFDATFHTNVLVNSSGHCQYLPPGIFKSSCPMDLKNFPMDVQTCKLKFGSWSYGGWSLDLQMQEADISGYIPNGEWDLVGIPGKRSERFVECCKEPYPDVTFTVTMRRRMGYYLIQMYIPSLLIVILSWISFWINMDAAPARVGLGITTVLTMTTQSSGSRASLPKVSYVKAIDIWMAVCLLFVFSALLEYAAVNFVSRQHKELLRFRRKRRHHKSPMLNLFQEDEAGEGRFNFSAYGMGPACLQAKDGISVKGANNSNTTNPPPAPSKSPEEMRKLFIQRAKKIDKISRIGFPMAFLIFNMFYWIIYKIVRREDVHNQ",YFP fluorescence quenching using CNL001 (percent quench),[1],0.804%
same,YFP fluorescence quenching using CNL001 (percent quench),[2],11.275%
same,YFP fluorescence quenching using TC-5619/Bradanicline (percent quench),[3],−1.431%
same,YFP fluorescence quenching using TC-5619/Bradanicline (percent quench),[4],−14.993%
same,YFP fluorescence quenching using CNL001 (percent quench),[5],15.843%
same,YFP fluorescence quenching using CNL001 (percent quench),[6],16.619%
same,YFP fluorescence quenching using TC-5619/Bradanicline (percent quench),[7],−5.52%
same,YFP fluorescence quenching using TC-6683 (percent quench),30 nM TC-6683,1.735%
same,YFP fluorescence quenching using TC-5619/Bradanicline (percent quench),[8],15.49%
same,YFP fluorescence quenching using CNL001 (percent quench),[9],15.205%
same,YFP fluorescence quenching using CNL001 (percent quench),[10],18.771%
same,YFP fluorescence quenching using ABT-126 (percent quench),50 nM abt (ABT-126),−24.16%
same,YFP fluorescence quenching using CNL001 (percent quench),[11],9.332%
same,YFP fluorescence quenching using CNL001 (percent quench),[12],18.218%
same,YFP fluorescence quenching using ABT-126 (percent quench),100 nM abt (ABT-126),−24.7%
same,YFP fluorescence quenching using TC-5619/Bradanicline (percent quench),100 nM brd (TC-5619/Bradanicline),72.105%
same,YFP fluorescence quenching using TC-6683 (percent quench),300 nM TC-6683,0.642%
same,YFP fluorescence quenching using ABT-126 (percent quench),300 nM abt (ABT-126),−16.09%
same,YFP fluorescence quenching using TC-5619/Bradanicline (percent quench),[13],71.411%
same,YFP fluorescence quenching using CNL001 (percent quench),[14],35.294%
same,YFP fluorescence quenching using CNL001 (percent quench),[15],36.542%
same,YFP fluorescence quenching using ABT-126 (percent quench),1 uM abt (ABT-126),−11.61%
same,YFP fluorescence quenching using TC-6683 (percent quench),3 uM TC-6683,2.403%
same,YFP fluorescence quenching (percent quench),10 uM ach (acetylcholine),−2.52%
same,YFP fluorescence quenching using TC-6683 (percent quench),30 uM TC-6683,6.006%
same,YFP fluorescence quenching using TC-6683 (percent quench),100 uM TC-6683,−4.277%
same,YFP fluorescence quenching (percent quench),100 uM ach (acetylcholine),−11.98%
same,YFP fluorescence quenching (percent quench),300 uM ach (acetylcholine),−16.71%
same,YFP fluorescence quenching (percent quench),500 uM ach (acetylcholine),−12.87%
same,YFP fluorescence quenching (percent quench),1 mM ach (acetylcholine),−14.41%
same,YFP fluorescence quenching (percent quench),3 mM ach (acetylcholine),−7.4%
same,YFP fluorescence quenching (percent quench),10 mM ach (acetylcholine),−1.5%
same,"YFP fluorescence quenching using Varenicline, 3 nM var",first column,6.745
same,"YFP fluorescence quenching using Varenicline, 3 nM var",second column,8.397
same,"YFP fluorescence quenching using Varenicline, 30 nM var",first column,14.1
same,"YFP fluorescence quenching using Varenicline, 30 nM var",second column,19.095
same,"YFP fluorescence quenching using Varenicline, 300 nM var",first column,16.83
same,"YFP fluorescence quenching using Varenicline, 300 nM var",second column,21.507
same,"YFP fluorescence quenching using Varenicline, 500 nM var",first column,21.586
same,"YFP fluorescence quenching using Varenicline, 500 nM var",second column,23.131
same,"YFP fluorescence quenching using Varenicline, 1 uM var",first column,31.591
same,"YFP fluorescence quenching using Varenicline, 1 uM var",second column,26.479

# Source: patent publication US20250152742A1, “COMPOSITIONS AND METHODS FOR NEUROLOGICAL DISEASES” (Trames Bio, Inc., priority 2022, published 2025)
